# Assay results taken from the supplement of paper PMC9112550, “Optimization of the antimicrobial peptide Bac7 by deep mutational scanning” (BMC Biology, 2022).
# System: Escherichia coli TOP10
# Experiment: shrunken log2 fold change of peptide-encoding DNA abundance (4.5 h post-induction vs induction); higher = less antimicrobial activity (less host growth inhibition)
# Conditions: time post-induction: 4.5 h; library: site-saturation at positions 5, 18, 19, 20
# 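Note: peptides expressed intracellularly from a pBAD plasmid library in pooled LB shake-flask culture, induced with 0.3% L-arabinose, DNA abundance read by NGS, three biological replicates, DESeq2 with apeglm shrinkage.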
sequence,measurement,value
RRIRNRPPRLPRPRPRPANCPRP,shrunken log2 fold change,-0.185
RRIRIRPPRLPRPRPRPGLGPRP,shrunken log2 fold change,0.217
RRIRRRPPRLPRPRPRPTSVPRP,shrunken log2 fold change,0.227
RRIRSRPPRLPRPRPRPTFLPRP,shrunken log2 fold change,-0.0423
RRIRFRPPRLPRPRPRPGWHPRP,shrunken log2 fold change,0.277
RRIRWRPPRLPRPRPRPPWWPRP,shrunken log2 fold change,0.674
RRIRERPPRLPRPRPRPVIPPRP,shrunken log2 fold change,-0.23
RRIRSRPPRLPRPRPRPHWKPRP,shrunken log2 fold change,0.0398
RRIRMRPPRLPRPRPRPMVLPRP,shrunken log2 fold change,-0.0251
RRIRSRPPRLPRPRPRPGLTPRP,shrunken log2 fold change,0.264
RRIRYRPPRLPRPRPRPCLRPRP,shrunken log2 fold change,-0.286
RRIRNRPPRLPRPRPRPQWHPRP,shrunken log2 fold change,-0.481
RRIRYRPPRLPRPRPRPNPKPRP,shrunken log2 fold change,-0.0294
RRIRVRPPRLPRPRPRPAHAPRP,shrunken log2 fold change,0.068
RRIRHRPPRLPRPRPRPAYVPRP,shrunken log2 fold change,-0.102
RRIRERPPRLPRPRPRPVWAPRP,shrunken log2 fold change,0.0658
RRIRDRPPRLPRPRPRPYRKPRP,shrunken log2 fold change,-0.0111
RRIRERPPRLPRPRPRPAWYPRP,shrunken log2 fold change,-0.179
RRIRVRPPRLPRPRPRPLPEPRP,shrunken log2 fold change,0.423
RRIRVRPPRLPRPRPRPYNFPRP,shrunken log2 fold change,-0.577
RRIRVRPPRLPRPRPRPFYLPRP,shrunken log2 fold change,-0.449
RRIRLRPPRLPRPRPRPTGEPRP,shrunken log2 fold change,0.205
RRIRLRPPRLPRPRPRPPWTPRP,shrunken log2 fold change,0.411
RRIRARPPRLPRPRPRPGGVPRP,shrunken log2 fold change,0.626
RRIRMRPPRLPRPRPRPSHGPRP,shrunken log2 fold change,0.385
RRIRLRPPRLPRPRPRPGHKPRP,shrunken log2 fold change,-0.275
RRIRLRPPRLPRPRPRPMTFPRP,shrunken log2 fold change,-0.263
RRIRERPPRLPRPRPRPFLRPRP,shrunken log2 fold change,-0.401
RRIRQRPPRLPRPRPRPYGAPRP,shrunken log2 fold change,-0.0876
RRIRVRPPRLPRPRPRPGQEPRP,shrunken log2 fold change,0.0329
RRIRWRPPRLPRPRPRPATDPRP,shrunken log2 fold change,0.258
RRIRPRPPRLPRPRPRPQTEPRP,shrunken log2 fold change,0.0275
RRIRSRPPRLPRPRPRPAVDPRP,shrunken log2 fold change,0.462
RRIRYRPPRLPRPRPRPNLFPRP,shrunken log2 fold change,-0.676
RRIRTRPPRLPRPRPRPKRFPRP,shrunken log2 fold change,-0.00233
RRIRERPPRLPRPRPRPRGYPRP,shrunken log2 fold change,-0.1
RRIRKRPPRLPRPRPRPGDCPRP,shrunken log2 fold change,0.106
RRIRARPPRLPRPRPRPTPKPRP,shrunken log2 fold change,0.956
RRIRTRPPRLPRPRPRPNMQPRP,shrunken log2 fold change,-0.223
RRIRTRPPRLPRPRPRPWICPRP,shrunken log2 fold change,0.0207
RRIRYRPPRLPRPRPRPKSRPRP,shrunken log2 fold change,-0.552
RRIRNRPPRLPRPRPRPEFFPRP,shrunken log2 fold change,-0.064
RRIRDRPPRLPRPRPRPMKRPRP,shrunken log2 fold change,0.108
RRIRCRPPRLPRPRPRPFCSPRP,shrunken log2 fold change,-0.008
RRIRWRPPRLPRPRPRPLWKPRP,shrunken log2 fold change,-0.128
RRIRCRPPRLPRPRPRPDHQPRP,shrunken log2 fold change,-0.172
RRIRIRPPRLPRPRPRPWHAPRP,shrunken log2 fold change,-0.0572
RRIRWRPPRLPRPRPRPCYRPRP,shrunken log2 fold change,0.131
RRIRARPPRLPRPRPRPCGVPRP,shrunken log2 fold change,0.255
RRIRSRPPRLPRPRPRPPGSPRP,shrunken log2 fold change,0.134
RRIRSRPPRLPRPRPRPAMIPRP,shrunken log2 fold change,0.365
RRIRHRPPRLPRPRPRPDGLPRP,shrunken log2 fold change,-0.0219
RRIRRRPPRLPRPRPRPMVLPRP,shrunken log2 fold change,-0.0254
RRIRWRPPRLPRPRPRPRRVPRP,shrunken log2 fold change,0.122
RRIRMRPPRLPRPRPRPTDPPRP,shrunken log2 fold change,0.00799
RRIRERPPRLPRPRPRPWVCPRP,shrunken log2 fold change,0.0297
RRIRERPPRLPRPRPRPFVPPRP,shrunken log2 fold change,-0.507
RRIRARPPRLPRPRPRPAFNPRP,shrunken log2 fold change,0.273
RRIRYRPPRLPRPRPRPRWYPRP,shrunken log2 fold change,-1.15
RRIRFRPPRLPRPRPRPSDWPRP,shrunken log2 fold change,0.0908
RRIRRRPPRLPRPRPRPYEPPRP,shrunken log2 fold change,-0.846
RRIRARPPRLPRPRPRPPRGPRP,shrunken log2 fold change,0.833
RRIRSRPPRLPRPRPRPGPTPRP,shrunken log2 fold change,0.788
RRIRFRPPRLPRPRPRPYKFPRP,shrunken log2 fold change,-0.228
RRIRGRPPRLPRPRPRPEEFPRP,shrunken log2 fold change,0.593
RRIRNRPPRLPRPRPRPCVVPRP,shrunken log2 fold change,-0.0224
RRIRVRPPRLPRPRPRPVQLPRP,shrunken log2 fold change,0.258
RRIRGRPPRLPRPRPRPDQRPRP,shrunken log2 fold change,0.55
RRIRCRPPRLPRPRPRPLEAPRP,shrunken log2 fold change,0.203
RRIRVRPPRLPRPRPRPDRWPRP,shrunken log2 fold change,0.478
RRIRMRPPRLPRPRPRPIIWPRP,shrunken log2 fold change,-0.0321
RRIRMRPPRLPRPRPRPDDHPRP,shrunken log2 fold change,0.00288
RRIRSRPPRLPRPRPRPLNIPRP,shrunken log2 fold change,-0.422
RRIRARPPRLPRPRPRPQKGPRP,shrunken log2 fold change,0.0244
RRIRVRPPRLPRPRPRPVRNPRP,shrunken log2 fold change,0.105
RRIRVRPPRLPRPRPRPDRCPRP,shrunken log2 fold change,0.0141
RRIRHRPPRLPRPRPRPYIPPRP,shrunken log2 fold change,-0.194
RRIRCRPPRLPRPRPRPRLNPRP,shrunken log2 fold change,0.00503
RRIRVRPPRLPRPRPRPYTFPRP,shrunken log2 fold change,-0.314
RRIRTRPPRLPRPRPRPLTDPRP,shrunken log2 fold change,-0.198
RRIRARPPRLPRPRPRPAVAPRP,shrunken log2 fold change,0.728
RRIRQRPPRLPRPRPRPNCRPRP,shrunken log2 fold change,0.13
RRIRPRPPRLPRPRPRPCLQPRP,shrunken log2 fold change,-0.631
RRIRGRPPRLPRPRPRPGCMPRP,shrunken log2 fold change,0.898
RRIRTRPPRLPRPRPRPWGWPRP,shrunken log2 fold change,-0.0131
RRIRPRPPRLPRPRPRPECCPRP,shrunken log2 fold change,0.526
RRIRYRPPRLPRPRPRPFIAPRP,shrunken log2 fold change,-1.12
RRIRYRPPRLPRPRPRPTMHPRP,shrunken log2 fold change,-0.484
RRIRARPPRLPRPRPRPTMSPRP,shrunken log2 fold change,0.159
RRIRYRPPRLPRPRPRPEHKPRP,shrunken log2 fold change,-0.605
RRIRKRPPRLPRPRPRPIVWPRP,shrunken log2 fold change,0.527
RRIRFRPPRLPRPRPRPEMWPRP,shrunken log2 fold change,-0.0843
RRIRWRPPRLPRPRPRPAPYPRP,shrunken log2 fold change,-0.0336
RRIRLRPPRLPRPRPRPKWGPRP,shrunken log2 fold change,0.0532
RRIRPRPPRLPRPRPRPPSPPRP,shrunken log2 fold change,0.439
RRIRHRPPRLPRPRPRPASPPRP,shrunken log2 fold change,0.158
RRIRHRPPRLPRPRPRPTSKPRP,shrunken log2 fold change,-0.125
RRIRTRPPRLPRPRPRPVPTPRP,shrunken log2 fold change,3.08
RRIRPRPPRLPRPRPRPEPAPRP,shrunken log2 fold change,0.572
RRIRARPPRLPRPRPRPCPHPRP,shrunken log2 fold change,-0.329
RRIRYRPPRLPRPRPRPKTYPRP,shrunken log2 fold change,-0.781
RRIRIRPPRLPRPRPRPFIHPRP,shrunken log2 fold change,-0.872
RRIRIRPPRLPRPRPRPANVPRP,shrunken log2 fold change,-0.0188
RRIRMRPPRLPRPRPRPKHMPRP,shrunken log2 fold change,0.171
RRIRKRPPRLPRPRPRPPHDPRP,shrunken log2 fold change,0.559
RRIRTRPPRLPRPRPRPNKCPRP,shrunken log2 fold change,-0.314
RRIRYRPPRLPRPRPRPMTMPRP,shrunken log2 fold change,-0.615
RRIRERPPRLPRPRPRPDLNPRP,shrunken log2 fold change,-0.322
RRIRRRPPRLPRPRPRPWCLPRP,shrunken log2 fold change,-0.214
RRIRDRPPRLPRPRPRPDCHPRP,shrunken log2 fold change,0.469
RRIRYRPPRLPRPRPRPTPKPRP,shrunken log2 fold change,0.167
RRIRTRPPRLPRPRPRPQDWPRP,shrunken log2 fold change,0.209
RRIRIRPPRLPRPRPRPRRFPRP,shrunken log2 fold change,-0.00443
RRIRARPPRLPRPRPRPMDAPRP,shrunken log2 fold change,0.293
RRIRLRPPRLPRPRPRPKRQPRP,shrunken log2 fold change,0.045
RRIRYRPPRLPRPRPRPDRQPRP,shrunken log2 fold change,-0.0345
RRIRERPPRLPRPRPRPGWDPRP,shrunken log2 fold change,0.0203
RRIRLRPPRLPRPRPRPDQQPRP,shrunken log2 fold change,-0.174
RRIRTRPPRLPRPRPRPVYGPRP,shrunken log2 fold change,-0.167
RRIRNRPPRLPRPRPRPNTQPRP,shrunken log2 fold change,-0.148
RRIRQRPPRLPRPRPRPTWDPRP,shrunken log2 fold change,0.0355
RRIRRRPPRLPRPRPRPTTGPRP,shrunken log2 fold change,-0.00353
RRIRKRPPRLPRPRPRPNDHPRP,shrunken log2 fold change,-0.177
RRIRLRPPRLPRPRPRPAYNPRP,shrunken log2 fold change,-0.119
RRIRDRPPRLPRPRPRPSSAPRP,shrunken log2 fold change,0.0666
